Laboratory results: patent US11819542B2, “Immunotherapeutic method for treating lung cancer by administering a polypeptide comprising an epitope of hZP3” (Pantarhei Bioscience B.V., priority 2017, dated 2023)

Key:
[1] = test system: hZP3-positive B16-HLA-A2 melanoma tumor; assay: Therapeutic immunization of HLA-A2 transgenic mice with ZP3-expressing tumor: tumor size; assay type: in vivo; settings: female HLA-A2 transgenic mice, ZP3 expressing tumors, 2 s.c. immunizations (prime D7-10, boost D14-17) plus GM-CSF/CpG, tumor size increased with PBS
Protocol: (§1) FIG. 5: Schedule for administration of hZP3-positive B16-HLA-A2 melanoma tumor cells and an hZP3 peptide-mixture (comprising peptides 4, 5, 6, 8 and 9 in Table 5), or rhZP3^1-383 protein to HLA-A2 transgenic mice. On Day 0 (D0), a tumor injection with 10^6 cells/mouse was given subcutaneously (s.c.). Thereafter, the prime injection was administered 7 to 10 days (D7-10) and a boost injection on Day 14 to Day 17 (D14-17). Tumor size was monitored after treatment. At Day 30 to 35, mice were sacrificed to determine hZP3 specific CD8^+ responses (ELISpot).
An in vivo pre-clinical efficacy study has been conducted to assess the immune response and the anti-tumor response after immunization with rhZP3 polypeptide (aa 1-383 with his-tag) and 5 different ZP3 epitopes. The hZP3 epitopes were selected based on CD8^+ T cell responses observed during previously performed immunogenicity experiments with rhZP3 polypeptide (aa 1-383) and with pools of peptides comprising hZP3 epitopes as indicated (see Table 5) combined with different adjuvants (data not shown). The peptides were synthesized by Pepscan (the Netherlands) at a purity >96%. […]
(§2) On Day 0 (DO), a tumor injection with 10^6 cells/mouse (s.c.) was given. […] Tumor size was monitored after treatment. […]

[2] = test system: hZP3 specific CD8^+ responses; assay: ZP3 specific CD8+ T cell response after immunization (interferon-γ ELISpot); assay type: in vivo; settings: HLA-A2 transgenic mice with ZP3 expressing tumors, after prime and boost immunization plus GM-CSF/CpG, Day 30 to 35
Protocol: as §1
FIG. 7: CD8^+ T cell responses as determined by interferon-γ (IFNg) ELISpot as measured against the peptides (all 5 or peptides 4, 5, 6, 8 or 9 individually) after immunization with the mixture of the 5 hZP3 peptides (peptide), or after immunization with the rhZP3^1-383 protein ZP3 (prot).
An in vivo pre-clinical efficacy study has been conducted to assess the immune response and the anti-tumor response after immunization with rhZP3 polypeptide (aa 1-383 with his-tag) and 5 different ZP3 epitopes. […]
as §2

[3] = listed as hZP3 polypeptide (aa 1-383)

B1: rhZP3 protein: rhZP3 polypeptide (aa 1-383 with his-tag), 100 μg s.c. plus GM-CSF/CpG as adjuvant (protein)
chain: QPLWLLQGGASHPETSVQPVLVECQEATLMVMVSKDLFGTGKLIRAADLTLGPEACEPLVSMDTEDVVRFEVGLHECGNSMQVTDDALVYSTFLLHDPRPVGNLSIVRTNRAEIPIECRYPRQGNVSSQAILPTWLPFRTTVFSEEKLTFSLRLMEENWNAEKRSPTFHLGDAAHLQAEIHTGSHVPLRLFVDHCVATPTPDQNASPYHTIVDFHGCLVDGLTDASSAFKVPRPGPDTLQFTVDVFHFANDSRNMIYITCHLKVTLAEQDPDELNKACSFSKPSNSWFPVEGSADICQCCNKGDCGTPSHSRRQPHVMSQWSRSASRN
Tumor size after treatment [1]: no growth of the tumor was observed
Tumor size after treatment [1, 3]: no increase in tumor size was observed
CD8^+ T cell response (IFNg ELISpot) ([2]; listed as ZP3 protein): a TCD8 response was observed
CD8^+ T cell response (IFNg ELISpot) [2, 3]: induced CD8^+ T cells
